Measurements reported in patent publication US20210317204A1 (ALMAC DISCOVERY, published 2021).
Changes are numbered by the printed parent chain. Values belong to the binder of their own block, whether it stands above or below them.

Assays:
D3 VNAR [1] = molecular target: T1, D3 VNAR; assay: competition ELISA: VNAR pre-incubated with peptide 5, residual binding to coated huROR1-Fc [continued]
T1 construct: shark VNAR domain; also called D3 WT; D3 monomer; not shown: C-terminal His6 or His6Myc tag (His6Myc in flow cytometry)
T1 sequence (chain, as listed by the source): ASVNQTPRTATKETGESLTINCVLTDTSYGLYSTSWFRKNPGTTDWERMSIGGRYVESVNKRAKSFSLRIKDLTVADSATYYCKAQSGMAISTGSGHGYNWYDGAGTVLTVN

D3-[G4S]5-D3 homodimer [2] = molecular target: T2, D3-[G4S]5-D3 homodimer; assay: as above
T2 construct: also called D3-D3; D3D3; not shown: C-terminal His6 or His6Myc tag (His6Myc in flow cytometry)
T2 sequence (chain, as listed by the source): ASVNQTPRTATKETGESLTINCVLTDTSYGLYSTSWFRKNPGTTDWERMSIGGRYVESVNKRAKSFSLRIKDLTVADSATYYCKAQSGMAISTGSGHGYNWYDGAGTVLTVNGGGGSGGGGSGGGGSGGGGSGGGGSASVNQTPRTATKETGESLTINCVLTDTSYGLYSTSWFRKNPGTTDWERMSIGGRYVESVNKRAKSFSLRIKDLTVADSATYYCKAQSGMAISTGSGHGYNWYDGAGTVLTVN

[3] = molecular target: T3, B1 VNAR (C-terminal His6 or His6Myc tag, not said which); assay: as above
T3 construct: shark VNAR domain; also called VNAR B1; B1 monomer
T3 sequence (chain, as listed by the source): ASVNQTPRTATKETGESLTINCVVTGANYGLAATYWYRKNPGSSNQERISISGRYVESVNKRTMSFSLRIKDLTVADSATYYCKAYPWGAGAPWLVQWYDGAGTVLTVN

[4] = molecular target: T4, human ROR1 extracellular domain-Fc fusion (human, UniProt Q01973 30-406); assay: SPR
T4 construct: extracellular domain; also called hROR1; ROR1-hFc

[5] = molecular target: T5, human ROR2 extracellular domain-Fc fusion (human, UniProt Q01974 34-403); assay: SPR
T5 construct: extracellular domain; also called hROR2; ROR2-hFc

[6] = molecular target: T6, rat ROR1 extracellular domain-Fc fusion (rat, UniProt D3ZZ97 30-406); assay: ELISA on coated rat ROR1-Fc
T6 construct: extracellular domain; also called rROR1

[7] = molecular target: T6, rat ROR1 extracellular domain-Fc fusion; assay: SPR, rROR1 on chip
[8] = molecular target: T4, human ROR1 extracellular domain-Fc …; assay: SPR, ROR1-hFc on chip; E. coli
[9] = molecular target: T5, human ROR2 extracellular domain-Fc …; assay: ELISA on coated human ROR2-Fc
[10] = molecular target: T7, mouse ROR1 extracellular domain-Fc fusion (mouse, UniProt Q9Z139 30-406); assay: SPR, mROR1 on chip
T7 construct: extracellular domain; also called mROR1; mouse ROR1-Fc
T7 sequence (Q9Z139 30-406): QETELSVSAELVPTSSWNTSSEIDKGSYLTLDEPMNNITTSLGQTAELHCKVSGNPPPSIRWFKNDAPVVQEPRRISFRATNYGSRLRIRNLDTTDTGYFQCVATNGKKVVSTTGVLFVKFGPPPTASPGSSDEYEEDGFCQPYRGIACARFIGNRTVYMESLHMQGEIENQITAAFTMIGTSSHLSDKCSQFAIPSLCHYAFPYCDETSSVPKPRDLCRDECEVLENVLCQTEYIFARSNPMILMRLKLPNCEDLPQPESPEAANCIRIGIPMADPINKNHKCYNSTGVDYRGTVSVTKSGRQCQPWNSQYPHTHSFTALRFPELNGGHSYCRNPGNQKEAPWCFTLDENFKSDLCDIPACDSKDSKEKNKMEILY

[11] = molecular target: T5, human ROR2 extracellular domain-Fc …; assay: SPR; remark: listed apart in the source
mouse serum albumin = molecular target: T8, mouse serum albumin (mouse, UniProt P07724 25-608); assay: SPR, albumin on chip
T8 construct: also called MSA
T8 sequence (P07724 25-608 limits assumed): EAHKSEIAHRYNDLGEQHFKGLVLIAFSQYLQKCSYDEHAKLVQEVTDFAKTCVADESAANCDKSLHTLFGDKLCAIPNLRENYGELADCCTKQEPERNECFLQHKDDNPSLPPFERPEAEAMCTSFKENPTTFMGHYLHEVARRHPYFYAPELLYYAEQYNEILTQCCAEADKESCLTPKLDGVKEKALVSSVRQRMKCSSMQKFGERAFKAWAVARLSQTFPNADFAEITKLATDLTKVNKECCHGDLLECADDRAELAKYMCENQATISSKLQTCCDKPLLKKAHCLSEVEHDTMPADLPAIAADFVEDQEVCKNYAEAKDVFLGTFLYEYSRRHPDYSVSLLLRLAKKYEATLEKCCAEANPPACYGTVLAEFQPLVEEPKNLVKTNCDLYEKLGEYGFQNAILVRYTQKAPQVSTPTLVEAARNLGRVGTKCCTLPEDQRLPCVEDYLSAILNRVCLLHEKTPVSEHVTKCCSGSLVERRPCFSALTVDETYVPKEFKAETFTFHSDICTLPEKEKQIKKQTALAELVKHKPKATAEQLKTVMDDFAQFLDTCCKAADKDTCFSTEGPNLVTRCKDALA

rat serum albumin = molecular target: T9, rat serum albumin (rat, UniProt P02770 25-608); assay: SPR, albumin on chip
T9 construct: also called RSA
T9 sequence (P02770 25-608 limits assumed): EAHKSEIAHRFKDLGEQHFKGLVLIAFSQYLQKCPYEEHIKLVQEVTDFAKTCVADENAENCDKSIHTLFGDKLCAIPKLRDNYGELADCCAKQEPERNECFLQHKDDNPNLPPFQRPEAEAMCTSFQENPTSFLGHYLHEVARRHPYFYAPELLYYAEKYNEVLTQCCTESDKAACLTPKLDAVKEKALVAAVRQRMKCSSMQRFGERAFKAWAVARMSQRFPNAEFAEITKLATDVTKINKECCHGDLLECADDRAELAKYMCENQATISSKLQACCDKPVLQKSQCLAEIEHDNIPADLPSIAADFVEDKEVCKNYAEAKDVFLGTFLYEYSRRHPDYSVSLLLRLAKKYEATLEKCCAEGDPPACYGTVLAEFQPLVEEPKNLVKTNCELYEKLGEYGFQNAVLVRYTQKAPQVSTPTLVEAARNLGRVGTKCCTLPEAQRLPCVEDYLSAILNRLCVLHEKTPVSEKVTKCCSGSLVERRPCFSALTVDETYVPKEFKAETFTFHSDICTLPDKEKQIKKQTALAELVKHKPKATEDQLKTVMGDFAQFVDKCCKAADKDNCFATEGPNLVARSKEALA

D3 VNAR [12] = molecular target: T1, D3 VNAR; assay: competition ELISA: D3 pre-incubated with the peptide (25% DMSO), residual binding to coated huROR1-Fc
[13] = molecular target: T3, B1 VNAR (C-terminal His6 or His6Myc …); assay: competition ELISA: B1 pre-incubated with the peptide, residual binding to coated huROR1-Fc
D3-[G4S]5-D3 homodimer [14] = molecular target: T2, D3-[G4S]5-D3 homodimer; assay: competition ELISA: D3-D3 pre-incubated with the peptide (25% DMSO), residual binding to coated huROR1-Fc

B2: P3A1 VNAR with His6Myc tag (VNAR)
VNAR: TRVDQTPRTATKETGESLTINCVLTDTSYGLYSTSWFRKNPGTTDWERMSIGGRYVESVNKGAKSFSLRIKDLTVADSATYYCKAREARHPWLRQWYDGAGTVLTVNQ
notes: shark VNAR domain; also called P3A1 6xHis myc
Kd [4]: 25.6 nM | koff [4]: 0.025 s⁻¹ | kon [4]: 980000 M⁻¹ s⁻¹ | binding result [5]: no binding

B3: P3A1 VNAR (C-terminal His6 or His6Myc tag, not said which) (VNAR, not shown: small tags and cut ends)
VNAR: TRVDQTPRTATKETGESLTINCVLTDTSYGLYSTSWFRKNPGTTDWERMSIGGRYVESVNKGAKSFSLRIKDLTVADSATYYCKAREARHPWLRQWYDGAGTVLTVN
notes: shark VNAR domain; also called P3A1 monomer
EC50 (read off the curve) [6]: ~0.3 µg/mL | Kd [7]: 17.7 nM | koff [7]: 0.045 s⁻¹ | kon [7]: 2.86e+06 M⁻¹ s⁻¹ | Kd [8]: 19.1 nM | koff [8]: 0.0442 s⁻¹ | kon [8]: 2.47e+06 M⁻¹ s⁻¹ | binding result [9]: no binding (tested: 10 ug/ml) | Kd [10]: 14.3 nM | koff [10]: 0.0408 s⁻¹ | kon [10]: 2.95e+06 M⁻¹ s⁻¹

B5: 2V control VNAR (VNAR, not shown: small tags and cut ends)
VNAR: B3 VNAR with R86Q, E87S, A88L, R89A, H90I, P91S, W92T, L93R, R94S, Q95Y
notes: control VNAR from a naive library, no known target; also called 2V monomer
binding result [7]: no binding | binding result [11]: no binding | binding result (mouse serum albumin): no binding | binding result (rat serum albumin): no binding | binding result [10]: no binding

B7: P3A1 dimer without tag (VNAR)
chain: TRVDQTPRTATKETGESLTINCVLTDTSYGLYSTSWFRKNPGTTDWERMSIGGRYVESVNKGAKSFSLRIKDLTVADSATYYCKAREARHPWLRQWYDGAGTVLTVNGGGGSGGGGSGGGGSGGGGSGGGGSTRVDQTPRTATKETGESLTINCVLTDTSYGLYSTSWFRKNPGTTDWERMSIGGRYVESVNKGAKSFSLRIKDLTVADSATYYCKAREARHPWLRQWYDGAGTVLTVN
notes: also called P3A1 dimer No tag
Kd [4]: 0.36 nM | koff [4]: 0.000598 s⁻¹ | kon [4]: 1.67e+06 M⁻¹ s⁻¹ | binding result [5]: no binding

The remaining lines, values ahead:

binding result (D3 VNAR [1]): no binding (tested: 1000 nM) | binding result (D3-[G4S]5-D3 homodimer [2]): no binding (tested: 1000 nM) | binding result [3]: no binding (tested: 1000 nM)
B1: peptide 5 (peptide)
peptide: RSTIYGSRLRIRNLDTTDTGYFQ
notes: also called ROR1 ECD Peptide 5

Kd [4]: 7.8 nM | koff [4]: 0.0206 s⁻¹ | kon [4]: 2.92e+06 M⁻¹ s⁻¹ | binding result [5]: no binding
B4: P3A1 VNAR with 6xHis tag (VNAR, not shown: small tags and cut ends)
VNAR: B3 VNAR
notes: shark VNAR domain; also called P3A1 6xHis

binding result (D3 VNAR [12]): no binding | binding result [13]: no binding (tested: 10 uM) | binding result (D3-[G4S]5-D3 homodimer [14]): no binding
B6: ROR1 ECD Peptide 4 (peptide)
peptide: QCVATNGKEVVSSTGVLFVKFGPPPTASPGYSDEYE
notes: synthetic linear peptide
